According to the RNAGym collection of RNA variant scans (doi:10.1073/pnas.2313332121):
Variants at the floor of the assay were thinned out.

B1: TPR 5TU (parent)
chain: GGAUCUUCUCGAUCUAACAAAAAAGACAAAUCUGCCACAAAGCUUGAGAGCAUCUUCGGAUGCAGAGGCGGCAGCCUUCGGUGGCGCGAUAGCGCCAACGUUCUCAACUAUGACACGCAAAACGCGUGCUCCGUUGAAUGGAGUUUAUCAUG

Variants of: B1
Experiment: polymerase ribozyme fitness, log enrichment relative to wild type (log ratio); higher = more active; in vitro selection for triplet polymerase activity
Method in brief: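 A single round of triplicate in vitro selection, including frozen incubation at −7 °C, was applied to PCR-built, transcribed mutant libraries of each subunit of a heterodimeric triplet polymerase ribozyme. Illumina sequencing of input and output libraries retained genotypes with ≥10 input reads and ≥1 read per output. Fitness is the base-2 logarithm of genotype enrichment divided by wild-type enrichment, from inverse-variance-weighted replicate averages.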

Variant | polymerase ribozyme fitness (log ratio)
A24C A73G G86U C99G C149G | ≤ -4.2
A23U A40U A73G | ≤ -4.2
A24U A37U G42C C75G | -3.99
A24U C27U C36U G58C G83A G112U A121G G124C | ≤ -4.2
A24U C57A A89U C95U C118U G143U | ≤ -4.2
A24C G67C C87U A122U A142G | ≤ -4.2
A23U A29G U101C | ≤ -4.2
A23U C57U | -3.64
A23U G42C G83A | ≤ -4.2
A23U U44A U55A A122U | ≤ -4.2
A23U G83U C93A G126U C129U | ≤ -4.2
A23U A41G | -3.88
A24U G88C U139C U144C | ≤ -4.2
G25A C72U G80U C93A C114U | ≤ -4.2
A23U C85A | ≤ -4.2
A24U G42C G50U C85G G136A G141A | ≤ -4.2
A24C G58A G59A A147C | ≤ -4.2
A24U U33G U56A A91G C103A | ≤ -4.2
A24C U56G G59C A91U U144C G152U | ≤ -4.2
A24U A52C | -0.457
A23U U33A U45A G46A C96U | -4.15
A24G U31C | -3.52
A24C C75A A106U C132G U139C A142U | ≤ -4.2
A24U A60G C79G C96G U109C | ≤ -4.2

Variant | polymerase ribozyme fitness (log ratio)
A23U G42C G88C C105G C116G | ≤ -4.2
A23G U144G | -1.79
G25A C35U G84A C87A A91U C118U A142G | ≤ -4.2
A24C A37C G59A C99G A107U | ≤ -4.2
G25C A26U A30U A39U U56G U77A A138U | ≤ -4.2
A24G C27G A28G C32A U55A U56A C76A C85A G92C U130G | ≤ -4.2
A23U A119G A120U G152A | ≤ -4.2
A23U C38U C114U G126A | ≤ -4.2
A24U G92U | 0.213
A24U G88C C95G C123G | ≤ -4.2
A23G U44G U53G A91C C95U C103A G117A A121C G126A | ≤ -4.2
A24G G50C C72U C87G U111C | ≤ -4.2
A24C U33A C35G U53A U82C G92U G136A | ≤ -4.2
A24U U77A G92A C125G | ≤ -4.2
A23U C72U G83A U109A U151G | ≤ -4.2
G25A C27G A30C C32G G68A C87A A107U | ≤ -4.2
A23U U56A A73U G86A C93G C131G U139C | ≤ -4.2
A24G G62U C85U U146A | ≤ -4.2
A24G G92A A121U A147G | ≤ -4.2
A23U C108A G143C | ≤ -4.2
A23U C96U U127C U144G A150G | ≤ -4.2
A23U A29U | -3.88
A24U G86C | -2.81
A23U G80U A91U G143C A150G | ≤ -4.2

Variant | polymerase ribozyme fitness (log ratio)
A24U G48U G83A | -1.25
A24U A26C A29U A40U A52G G62U C85U | ≤ -4.2
A23U A29U C85A A115G G143C | ≤ -4.2
A24U A113C | -3.05
A24C G34A C96G G117C U135G U139A U145A | ≤ -4.2
A23U A28G U55A G59A U78G G128A | -3.79
A23U U53G | ≤ -4.2
A24G C57A G59U C75A U90G C103G C108U A110C G133U G141C | ≤ -4.2
A24C G67A G92U | ≤ -4.2
A24U A28C A52G G71A C96G A137C | ≤ -4.2
A24U U45A | -3
A24U G84A G94U C96A A121U G126U U135A | -4.1
G25A C51U G92U A119U G124U | -3.78
A24G G92U A122G | ≤ -4.2
A24C U53A G81C C95U G141A | ≤ -4.2
A24U C54A G58A G84A A120G G126U | -1.19
A24U A97G U151C | ≤ -4.2
A24U G58A G88U | ≤ -4.2
A24G G83U | -3.03
A24U C96U C129G | -3.47
A24U G46C A60C U102G | ≤ -4.2
A23U G42U G58U C75U U148G | ≤ -4.2
A24U A37G | -2.41
G25A C35U U56A A60C C85A C93U A106C | ≤ -4.2

Variant | polymerase ribozyme fitness (log ratio)
A23G U44A U56A | ≤ -4.2
A24U C79U U102G C118U A119G G140A | ≤ -4.2
A23U U61A A107U A115G | ≤ -4.2
A24U C72U G84U C118U A142G | -3.98
A24C A40U G94A C116A | ≤ -4.2
A24U U148C | -2.14
G25A A30G A41U G50A C87U | ≤ -4.2
A23U C27G A37U C95G A110G G140C | -3.86
A24U U45G G86A | -2.58
A24G C38G A40U A110C | ≤ -4.2
A24U A28U A39C G59C A60U A66G G68C C79G G81A C116G C125U | ≤ -4.2
A23U A26U U33G A37C C72G C76A C95G U144C | ≤ -4.2
A24U G84U | -2.26
G25C | -2.52
G25A | -1.62
A24U G50U U56G G58U C76U A122G | -4.1
A23U G68A A73U C99U | ≤ -4.2
A24C G81U C87G U104G A110U | ≤ -4.2
A24G U44A A49C U82G A122U G140C C149U | -4.02
G25A U56A | -1.67
A24C A49U C87A G92A G140U | ≤ -4.2
A24U U56A | 0.265
A24U G42A G88A G92A A115C | ≤ -4.2
A24G C51G G59C G92C C99U C125U | ≤ -4.2

Variant | polymerase ribozyme fitness (log ratio)
A24U U33G U77A C87U | ≤ -4.2
A24U A41U G62C G70C C85G G152A | ≤ -4.2
A24G C35U A89U G92C C125A | ≤ -4.2
A24U G83U C85G G126U | ≤ -4.2
A23U G50A C95U A137G | ≤ -4.2
A24U A49C C54U C75G C85A A122U U144C A147C | ≤ -4.2
A23U A24C A30G A39G C116U | ≤ -4.2
A24C G46A C116G | -4.14
A24U G48A A49G G50A U55A C123A G136C | ≤ -4.2
A24G A47G G48A C75U G86A | ≤ -4.2
A24U A52G C79G G94A A107G | ≤ -4.2
A24U G83U G136A U146C A150G | -3.59
A24U A121U G124U | -1.16
A23G U56A A97G A115G | -3.42
A24U G34C C79G C87U A137U | ≤ -4.2
A24U C35U G42C C93U G136C A142G | -4.03
A24G C108U U148G | ≤ -4.2
A24U G50U G59A | 0.438
A23U G46U G67U C96G U146G U151A | ≤ -4.2
A24C A37C U53A A66U C95A C114G U135C U144A | ≤ -4.2
A23U A29C C85G A110G G112U | ≤ -4.2
A23U C57A G92C C149G | ≤ -4.2
A24U C36A U44A C72G C95A A119G G140C | ≤ -4.2
A24C G42A A52G U55A C76U C123G G126A | ≤ -4.2

Variant | polymerase ribozyme fitness (log ratio)
A24U A52C C87A | ≤ -4.2
A24C C27A U56A G58A C72U A73U C87U | ≤ -4.2
A24U C99U | -1.46
A24U G50C C57U C79G C118G U148C | ≤ -4.2
G25A C76U C87A A110G A120G | ≤ -4.2
G25A C51U G59C G88A U102G G136U | ≤ -4.2
A24U A49U C51U G70A C85U G112U C114A A122U U146C | ≤ -4.2
A24C C32U A39U U90A C95G A138U U144A | ≤ -4.2
A23U C99U | -3.84
A23U C87G A91G | ≤ -4.2
A24U C57U C69G G84A C87A A115C | ≤ -4.2
A24U A60U G84U | -2.22
A24C G58A | ≤ -4.2
A24C A28G U53A U134A | ≤ -4.2
A24G A91U | ≤ -4.2
A24U U56A G62C | -1.06
A23G U90A C93U C105U C125U | ≤ -4.2
G25A A28U A41U A66U G83U U111G C118U | ≤ -4.2
A24U A37U C51A C87U A98U G100U | ≤ -4.2
A23U C93A U135C | ≤ -4.2
A24U A28G A29U C93G C114U | ≤ -4.2
A24C G50C U56A C93U G94C U148C | ≤ -4.2
A23U A60G G81A G83U | ≤ -4.2
A24G G124U | -4.06

Variant | polymerase ribozyme fitness (log ratio)
A24C C85U | -3.65
G25C A26C | -2.94
A23U U55A U61C G67A C87U G126U G136C G140U | ≤ -4.2
A24U C32G U55G U78A U104G | ≤ -4.2
A24U G59U C87U G128A G140U U151C | ≤ -4.2
A24U C93U C118U A121G | -1.37
G25A C54A G84U C114U A115G A121C U145G A150U | ≤ -4.2
A23G U101A | -3.18
A23U A52G C76U C79A C103A | ≤ -4.2
A24C A26U U31A G68U C87A A89G A98G C132G | ≤ -4.2
A24U C93U U104G | -1.84
A24U A40C U55A A60G C75G C96G U104G | ≤ -4.2
A24C C43U C93G G141U | ≤ -4.2
A24G G25A G84A C125G G152A | ≤ -4.2
A23U A49C U61G C87A | ≤ -4.2
A24U U31A C63G C76A | -3.16
G25A A28U G94A U102A A137C | ≤ -4.2
A24G C32A C38A U45A C57U A106U C118U | ≤ -4.2
A24G G141C G143C | ≤ -4.2
A24U C35U C75U | -2.19
A24G A52C G68A U151G | ≤ -4.2
A24G G71C C79G C85A G124U U130G U148C | ≤ -4.2
A24G A49C C51A U78G G81C | ≤ -4.2
